Reference: patent publication US20250376509A1 (Janssen / Centocor, published 2025)

Target: T1, CALRins5 (Type 2 mutant calreticulin) on ELF-153 MPL CALRins5 cells (human, UniProt P27797 18-417)
T1 sequence (looked up): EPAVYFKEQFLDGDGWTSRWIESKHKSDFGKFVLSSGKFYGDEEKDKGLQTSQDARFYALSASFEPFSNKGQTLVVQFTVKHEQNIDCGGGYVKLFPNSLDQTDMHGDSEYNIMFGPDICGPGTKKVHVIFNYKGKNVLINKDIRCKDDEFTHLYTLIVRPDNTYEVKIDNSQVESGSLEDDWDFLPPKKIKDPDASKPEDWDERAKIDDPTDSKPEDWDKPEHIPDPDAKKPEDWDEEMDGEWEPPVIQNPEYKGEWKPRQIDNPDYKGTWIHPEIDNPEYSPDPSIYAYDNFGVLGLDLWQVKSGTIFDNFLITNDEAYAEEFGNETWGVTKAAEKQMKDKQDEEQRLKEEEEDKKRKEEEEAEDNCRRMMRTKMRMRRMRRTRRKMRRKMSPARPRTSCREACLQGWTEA
Test: cell-based or functional assay

B1: C3CRB73, a CALRmut x CD3 bispecific antibody (bispecific antibody, human IgG1, kappa, L234A L235A)
heavy: EVQLLESGGGLVQPGGSLRLSCAVSGIDLSNNAISWVRQAPGKGLEYVGVIGNTGDTYYADSAKGRFTISRDSSKTTLYLQMNSLRAEDTAVYFCVRGPPSYSSSVKNIWGQGTLVTVSSASTKGPSVFPLAPSSKSTSGGTAALGCLVKDYFPEPVTVSWNSGALTSGVHTFPAVLQSSGLYSLSSVVTVPSSSLGTQTYICNVNHKPSNTKVDKKVEPKSCDKTHTCPPCPAPEAAGGPSVFLFPPKPKDTLMISRTPEVTCVVVSVSHEDPEVKFNWYVDGVEVHNAKTKPREEQYNSTYRVVSVLTVLHQDWLNGKEYKCKVSNKALPAPIEKTISKAKGQPREPQVYTLPPSREEMTKNQVSLSCAVKGFYPSDIAVEWESNGQPENNYKTTPPVLDSDGSFFLVSKLTVDKSRWQQGNVFSCSVMHEALHNRFTQKSLSLSPGK
light: DIQMTQSPSSVSASVGDRVTITCQSSQSVYNNNWLSWLQQKPGKAPKRLIYDASKLESGVPSRFSGSGSGTDFTLTISSVQPEDAATYYCAGGFTGNVYTFGGGTKVEIKRTVAAPSVFIFPPSDEQLKSGTASVVCLLNNFYPREAKVQWKVDNALQSGNSQESVTEQDSKDSTYSLSSTLTLSKADYEKHKVYACEVTHQGLSSPVTKSFNRGEC
chain: DIQMTQSPSSLSASVGDRVTITCRARQSIGTAIHWYQQKPGCAPKLLIKYASESISGVPSRFSGSGSGTDFTLTISSLQPEDFATYYCQQSGSWPYTFGQGTKLEIKGGGSGGSGGCPPCGGSGGEVQLVESGGGLVKPGGSLRLSCAASGFTFSRYNMNWVRQAPGKGLEWVSSISTSSNYIYYADSVKGRFTFSRDNAKNSLDLQMSGLRAEDTAIYYCTRGWGPFDYWGCGTLVTVSSEPKSSDKTHTCPPCPAPEAAGGPSVFLFPPKPKDTLMISRTPEVTCVVVSVSHEDPEVKFNWYVDGVEVHNAKTKPREEQYNSTYRVVSVLTVLHQDWLNGKEYKCKVSNKALPAPIEKTISKAKGQPREPQVYTLPPSREEMTKNQVSLWCLVKGFYPSDIAVEWESNGQPENNYKTTPPVLDSDGSFFLYSKLTVDKSRWQQGNVFSCSVMHEALHNHYTQKSLSLSPGK
In the case of B1, the “median EC50 of ELF-153 MPL CALRins5 cells cytotoxicity using patient whole blood” value is reported as 0.64 nM.
